Patent US20240382677A1 (Regeneron, published 2024)

T1: recombinant cynomolgus monkey PD-1 expressed with a C-terminal myc-myc-hexahistidine tag (cynomolgus monkey)
T1 construct: also called MfPD-1-MMH; MIPD-1-MMH
T1 chain: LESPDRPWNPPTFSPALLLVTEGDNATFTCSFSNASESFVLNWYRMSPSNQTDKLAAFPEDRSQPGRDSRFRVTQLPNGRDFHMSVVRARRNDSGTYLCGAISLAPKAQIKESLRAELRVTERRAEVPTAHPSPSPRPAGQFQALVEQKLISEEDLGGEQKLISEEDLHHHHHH

T2: monkey PD-1 with mFc (monkey PD-1-mFc) (monkey)
T2 construct: also called monkey PD-1 dimer; MfPD-1 dimer
T2 chain: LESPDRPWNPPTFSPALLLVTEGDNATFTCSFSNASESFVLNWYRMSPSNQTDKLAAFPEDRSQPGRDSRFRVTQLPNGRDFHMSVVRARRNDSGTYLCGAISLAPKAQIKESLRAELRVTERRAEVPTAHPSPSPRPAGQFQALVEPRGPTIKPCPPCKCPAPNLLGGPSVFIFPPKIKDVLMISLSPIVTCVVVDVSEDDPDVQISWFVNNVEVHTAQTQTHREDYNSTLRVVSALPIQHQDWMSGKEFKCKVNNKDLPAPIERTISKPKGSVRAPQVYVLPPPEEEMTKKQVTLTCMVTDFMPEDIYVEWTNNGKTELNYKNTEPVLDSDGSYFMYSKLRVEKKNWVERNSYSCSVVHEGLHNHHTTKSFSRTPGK

B1: H2aM7788N (antibody, mouse IgG2a, V domains shown)
VH: EVQLVESGGGLVQPGGSLRLSCGASGFTFRNYDMHWVRQITGKGLEWVSAIGSAGDTYYPDSVKGRFTISRENAKNSLYLQMNSLRVGDTAVYYCTRDIHCSSTRCYGMDVWGQGTTVTVSS
VL: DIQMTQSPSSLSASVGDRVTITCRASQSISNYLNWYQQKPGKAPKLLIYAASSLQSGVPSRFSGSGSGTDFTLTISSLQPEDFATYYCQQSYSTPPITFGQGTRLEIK
notes: human variable regions with mouse IgG2a Fc (H2aM prefix); also called H2M7788N; H2aM7788M
B2: H4xH9034P (antibody, V domains shown)
VH: EVQLVESGGGVVRPGGSLRLSCTASGFTFDDYGMSWVRQAPGKGLEWISGIGWTGGRSSYADSVRGRFTISRDNAKNSLYLQMNSLGAEDTALYYCARDRQWLVQWYFDYWGQGTLVTVSS
VL: not shown
notes: human IgG4 Fc with 2 or more amino acid changes as in US20100331527 (H4xH prefix); also called H4xH9034P2; H4xH8034P2
B3: H1M7799N (antibody, mouse IgG1, V domains shown)
VH: EVQLVESGGGLVQPGGSLRLSCAASGFTVSNNYMSWVRQAPGKGLEWVSVIYSGGFTYYTDSVKGRFTISRHNSKNTLYLQMNSLRAEDTAVYYCARYYYDTSDYWTFFDYWGQGTLVTVSS
VL: EIVMTQSPATLSVSPGERATLSCRASQSVSSNLAWYQQKPGQAPRLLIYGASTRATGIPARFSGSGSGTEFTLTISSLQSGDFAVYYCQQYNNWPLTFGGGTKVEIN
notes: mouse IgG1 Fc; human variable regions
B4: H1M7800N (antibody, mouse IgG1, V domains shown)
VH: B3 VH
VL: B3 VL
notes: as for B3
B5: H2aM7798N (antibody, mouse IgG2a, V domains shown)
VH: EVQLLESGGVLVQPGGSLRLSCAASGFTFSNFGMTWVRQAPGKGLEWVSGISGGGRDTYFADSVKGRFTISRDNSKNTLYLQMNSLKGEDTAVYYCVKWGNIYFDYWGQGTLVTVSS
VL: DIQMTQSPSSLSASVGDSITITCRASLSINTFLNWYQQKPGKAPNLLIYAASSLHGGVPSRFSGSGSGTDFTLTIRTLQPEDFATYYCQQSSNTPFTFGPGTVVDFR
notes: mouse IgG2a Fc; human variable regions; also called H2M7798N
B6: H2aM7780N (antibody, mouse IgG2a, V domains shown)
VH: QVQLVESGGGVVQSGRSLRLSCAASGFTFSSYGMHWVRQAPGKGLEWVAVIWYDGSNIYYSDSVKGRFTISRANSKNTLYLQMNSLRAEDTAVYYCARPGHWNYFFEYWGQGTLVTVSS
VL: DIQMTQSPSSLSASVGDRVTITCRASQSINNYLNWYQQKPGKAPKLLIYTASSLQSGVPSRFSGSGSGTDFTLTISSLQPEDFATYYCQQSYSTPPLTFGQGTQLEIK
notes: mouse IgG2a Fc; human variable regions; also called H2M7780N
B7: H4H9048P2 (antibody, human IgG4 S228P, kappa, V domains shown)
VH: QVQLVQSGAEVKRPGSSVKVSCKVSGVTFRNFAIIWVRQAPGQGLEWMGGIIPFFSAANYAQSFQGRVTITPDESTSTAFMELASLRSEDTAVYYCAREGERGHTYGFDYWGQGTLVTVSS
VL: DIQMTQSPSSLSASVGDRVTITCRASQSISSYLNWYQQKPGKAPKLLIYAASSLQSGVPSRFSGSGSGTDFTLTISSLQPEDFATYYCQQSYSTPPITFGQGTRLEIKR
notes: human IgG4 Fc
B8: H4H9068P2 (antibody, V domains shown)
VH: EVQLVESGGGLVQRGGSLRLSCAASGFSFSSYAMNWVRQAPGKGLEWVSTISDSGGSTYYADSVKGRFTISRDNSKNTLSLQMNSLRAEDTAVYYCAKDQGGSYPYYFHYWGQGTLVTVSS
VL: not shown
B9: H4xH9119P2 (antibody, V domains shown)
VH: EVQLVESGGGLVQPGRSLRLSCAASGFTFEDYAMHWVRQAPGKGLEWVSGIGWSNVKIGYADSVKGRFTISRDNVRNSLYLQMNSLRTEDTAFYYCVKAYTSMLTLYFDYWGQGTLVTVSS
VL: not shown
notes: human IgG4 Fc with 2 or more amino acid changes (US20100331527)
B10: H4xH9135P2 (antibody, V domains shown)
VH: EVQLVESGGSVVRPGGSLRLSCVVSGFTFEDYGLSWVRQIPGKGLEWVSGISWTGGNTGYADSVKGRFTISRDNAKNSLYLQMNSLRAEDTALYHCTRDRQWLMQWYFDYWGQGTLVTVSS
VL: not shown
notes: as for B9
B11: H4xH9120P2 (antibody, V domains shown)
VH: QVQLVQSGAEVKRPGASVKVSCKASGYTFTSFYMYWVRQAPGQGLEWMGIINPSDGSTSNAQKFQGRVTMTRDTSTSTVYMELSSLRSEDTAVYYCARRVAGDIFDIWGQGTMVTVSS
VL: not shown
notes: as for B9
B12: H4xH9128P2 (antibody, V domains shown)
VH: QVQLQESGPGLVKPSETLSLTCTVSGGSISSYHWNWIRQSPGKGLEWIGYIYYIGSTDYNPSLESRVTISVDTSKNQFSLKLSSVTAADTAVYYCARVPVGATGASDVWGQGTMVTVSS
VL: not shown
notes: as for B9
B13: H4H9019P (antibody, human IgG4, V domains shown)
VH: EVQLVESGGGVVRPGGSLRLSCAASGFTFDDYGMSWVRQVPGKGLEWVSGISWNDGKTVYAESVKGRFIISRDNAKNSLYLEMNSLRAEDTALYYCARDWQYLIERYFDYWGQGTLVTVSS
VL: not shown
notes: human IgG4 Fc; also called H4xH9019P
B14: H4xH9145P2 (antibody, V domains shown)
VH: QVQLVESGGGVVQPGRSLRLSCSASGFTFSAYAMHWVRQAPGKGLEWVAAISYGGSDKYYADSVKGRFTISRDNSKNTLYLQMNSLRTDDTAVYYCAKSAHWNFFFDYWGQGTLVTVSS
VL: not shown
notes: as for B9
B15: H4xH9008P (antibody, V domains shown)
VH: EVQLVESGGGLVRPGGSLRLSCAASGFTFSTYAMAWVRQTPGKGLEGVSAIGGSGDSTYYVDSVKGRFTISRDNSKSTLFLQMNSLRAEDTAVYYCVKVRNYDGSFDIWGQGTMVTVSS
VL: not shown
notes: human IgG4 Fc with 2 or more amino acid changes as in US20100331527 (H4xH prefix); also called H4x19008P
B16: H4xH9119P2 (antibody, V domains shown)
VH: B9 VH
VL: not shown
notes: human IgG4 Fc with 2 or more amino acid changes as in US20100331527 (H4xH prefix)
B17: H2aM7796N (antibody, mouse IgG2a, V domains shown)
VH: QVQLVESGGGVVQPGRSLRLSCAASGFTFSSYGMHWVRQAPGKGLEWVAIIWSDGDSEYNLDSVKGRFTISRDNSKNTLYLQMNSLRVEDSAVYYCARDRDLEDIWGQGTMVTVSS
VL: DIQMTQSPSSLSASVGDRVTITCRASQGIRNDLGWYQQKPGKAPKRLIYAASNLQSGVPSRFSGSGSGTEFTLTISSLQPEDFATYYCLQHNSYPLTFGGGTKVEIK
notes: mouse IgG2a Fc; also called H2M7796N
B18: H4H7798N (antibody, human IgG4, V domains shown)
VH: B5 VH
VL: DIQMTQSPSSLSASVGDSITITCRASLSINTFLNWYQQKPGKAPNLLIYAASSLHGGVPSRFSGSGSGTDFTLTIRTLQPEDFATYYCQQSSNTPFTFGPGTVVDFRR
notes: human IgG4 Fc; also called M4H7798N; HAH7798N

Target: T1, recombinant cynomolgus monkey PD-1 …
Test: SPR Biacore, mAb captured, 37 C

Binder	t½ [min]
B1	3.6
B2	0.6

target: T3, recombinant human PD-1 dimer expressed with a C-terminal mouse IgG2a Fc tag (hPD-1-mFc) (human); test: BLI Octet Red 96, captured hPD-L1-hFc
T3 construct: also called human PD-1-mFc

Binder	binding of the mixture of 100 nM hPD-1-mFc and 500 nM antibody [nm]
B3	0
B4	0
B5	0.01
B6	-0.01

target: recombinant human PD-1 expressed with a C-terminal human IgG1 Fc tag (hPD-1-hFc) (human); test: SPR Biacore 3000, captured hPD-L1-mFc
Sequence (chain, as listed by the source limits assumed): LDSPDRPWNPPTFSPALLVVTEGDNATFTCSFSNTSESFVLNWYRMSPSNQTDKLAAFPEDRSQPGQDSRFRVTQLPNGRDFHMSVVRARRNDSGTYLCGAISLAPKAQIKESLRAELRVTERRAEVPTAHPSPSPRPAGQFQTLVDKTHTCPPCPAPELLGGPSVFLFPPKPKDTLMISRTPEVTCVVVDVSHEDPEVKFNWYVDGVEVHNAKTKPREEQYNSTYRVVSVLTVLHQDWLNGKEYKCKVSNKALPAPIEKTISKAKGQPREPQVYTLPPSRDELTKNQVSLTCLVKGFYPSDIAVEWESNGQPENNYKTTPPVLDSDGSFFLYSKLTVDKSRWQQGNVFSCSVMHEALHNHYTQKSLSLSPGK

Binder	% Blocking [%]	binding of the mixture of 100 nM hPD-1-hFc and 500 nM antibody [RU]
B7	91	9
B8	-265	365
B9	–	-5
B10	–	-3
B11	–	0
B12	–	-5
B13	–	-1
B14	–	-6

Target: T2, monkey PD-1 with mFc (monkey PD-1-mFc)
Test: SPR 37C, mAb captured;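 note: Real-time binding of antigen to purified anti-PD-1 antibodies, measured by surface plasmon resonance on a Biacore 4000 or T200 instrument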

Binder	100 nM Monkey PD-1-mFc Bound [RU]	t½ [min]
B8	6	1.1
B9	40	–
B10	52	15
B11	46	23
B12	60	14
B13	36	45
B14	94	19

Target: T2, monkey PD-1 with mFc (monkey PD-1-mFc)
Test: SPR 25C, mAb captured

Binder	100 nM Monkey PD-1-mFc Bound [RU]	t½ [min]
B8	17	4
B9	83	67
B10	74	81
B11	52	104
B12	64	94
B13	31	129
B14	84	77

target: PD-1 chimera hPD1-hCD300a on Jurkat/AP1-Luc cells (human); test: cell-based or functional assay

Binder	Concentration (M) of Antibody at 150% activation [M]
B6	6.62e-09

target: T4, human PD-1 dimer (human PD-1-mFc or human PD-1-hFc) (human, Fc-mediated homodimer; one copy of the chain is given.); test: SPR Biacore, mAb captured, 25 C
T4 construct: also called hPD-1-mFc; hPD1-hFc; not shown: The C-terminal Fc tag
T4 sequence (chain, as listed by the source limits assumed): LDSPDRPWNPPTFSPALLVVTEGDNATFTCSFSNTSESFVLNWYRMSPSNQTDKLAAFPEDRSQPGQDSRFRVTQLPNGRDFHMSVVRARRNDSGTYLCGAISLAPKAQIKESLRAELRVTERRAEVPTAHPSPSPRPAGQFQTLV

Binder	Kd [nM]	koff [s⁻¹]
B15	0.786	–
B16	–	0.000152

target: T5, polyclonal rabbit anti-mouse antibody (GE Catalog #BR-1008-38) coupled to the CM5 Biacore sensor surface (rabbit); test: SPR Biacore 3000, antibody alone over the anti-mouse Fc capture surface of the hPD-L1-mFc assay (background control)
T5 construct: also called anti-mouse Fc capture surface

Binder	500 nM of anti-PD-1 monoclonal antibody (RU)
B7	-7

target: T3, recombinant human PD-1 dimer expressed …; test: competition ELISA, 1.5 nM hPD-1-mFc, coated hPD-L1-hFc

Binder	% blocking at 200 nM antibody [%]
B13	96

Target: T1, recombinant cynomolgus monkey PD-1 …
Test: SPR Biacore, mAb captured, 25 C

Binder	binding result	Kd [nM]	kon [M⁻¹ s⁻¹]
B17	no binding (tested: 200 nM)	–	–
B18	–	3.8	–
B1	–	–	8530
